Assays:
[1] = specific initial activity, cyclohex-2-enone reduction (U mg-1); higher = more active
Protocol: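 Purified His-tagged ene reductases in 50 mM sodium phosphate pH 7.4 with 0-30% (v/v) organic co-solvent. Melting temperature was measured by the ThermoFMN assay (FMN fluorescence, 20-90 °C at 1 °C/min, inflection point, triplicate). Specific initial activity was measured with 10 mM cyclohex-2-enone and 0.2 mM NAD(P)H (NADH for LacER) as A340 depletion, at room temperature (DMSO, 2-propanol, n-propanol) or 25 °C (EtOH, MeOH), in triplicate. The TsOYE Tm is above the 90 °C measurement range.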

[2] = as above; remark: listed apart in the source
Protocol: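 Specific initial activity of purified ene reductases with 10 mM cyclohex-2-enone and 0.2 mM NAD(P)H in 50 mM sodium phosphate pH 7.4 with 0-45% (v/v) ethanol or methanol, at set reaction temperatures of 25-45 °C. NAD(P)H depletion was followed at 340 nm for 480 s, in triplicate.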

MNPKYKPLFEPFTFKSGVTINNRIAVAPMTHYASNEDGTISEAELDYIIPRSKEMGMVITACANVTPDGKAFPGQPAIHDDSNIPGLKKLAQAIQAQGAKAVVQIHHGGIECPSELVPQQDVVGPSDVFDNGKQIARALTEEEVENIVKAFGEATRRAIEAGFDGVEIHGANGYLIQQFYSPKTNQRTDRWGGSDEKRLAFPLAIVDEVKKAASEHAKGAFLVGYRLSPEEPETPGLTMTETYTLVDALGDKELDYLHISLMDVNSKARRGADPTRTRMDLLNERVGNKVPLIAVGSIHSADDALAVIENGIPLVAMGREILVDPNWTVKVKEGREKQIETVIKGTDKEKYHLPEPLWQAIVNTQGWVPYKD
Conditions | specific initial activity
[1], co-solvent: 2-propanol, co-solvent concentration (% v/v): 0 | 5.75
[1], co-solvent: 2-propanol, co-solvent concentration (% v/v): 5 | 6.02
[1], co-solvent: 2-propanol, co-solvent concentration (% v/v): 10 | 6.11
[1], co-solvent: 2-propanol, co-solvent concentration (% v/v): 15 | 6.21
[1], co-solvent: 2-propanol, co-solvent concentration (% v/v): 20 | 6.17
[1], co-solvent: 2-propanol, co-solvent concentration (% v/v): 25 | 5.81
[1], co-solvent: 2-propanol, co-solvent concentration (% v/v): 30 | 5.26
[1], co-solvent: dimethyl sulfoxide, co-solvent concentration (% v/v): 0 | 4.09
[1], co-solvent: dimethyl sulfoxide, co-solvent concentration (% v/v): 5 | 4.4
[1], co-solvent: dimethyl sulfoxide, co-solvent concentration (% v/v): 10 | 4.34
[1], co-solvent: dimethyl sulfoxide, co-solvent concentration (% v/v): 15 | 4.41
[1], co-solvent: dimethyl sulfoxide, co-solvent concentration (% v/v): 20 | 4.2
[1], co-solvent: dimethyl sulfoxide, co-solvent concentration (% v/v): 25 | 4.35
[1], co-solvent: dimethyl sulfoxide, co-solvent concentration (% v/v): 30 | 4.2
[1], co-solvent: ethanol, co-solvent concentration (% v/v): 0 | 5.73
[1], co-solvent: ethanol, co-solvent concentration (% v/v): 5 | 5.9
[1], co-solvent: ethanol, co-solvent concentration (% v/v): 10 | 6.22
[1], co-solvent: ethanol, co-solvent concentration (% v/v): 15 | 6.67
[1], co-solvent: ethanol, co-solvent concentration (% v/v): 20 | 6.21
[1], co-solvent: ethanol, co-solvent concentration (% v/v): 25 | 6.62
[1], co-solvent: ethanol, co-solvent concentration (% v/v): 30 | 5.96
[1], co-solvent: methanol, co-solvent concentration (% v/v): 0 | 5.71
[1], co-solvent: methanol, co-solvent concentration (% v/v): 5 | 6.14
[1], co-solvent: methanol, co-solvent concentration (% v/v): 10 | 5.62
[1], co-solvent: methanol, co-solvent concentration (% v/v): 15 | 5.36
[1], co-solvent: methanol, co-solvent concentration (% v/v): 20 | 5.05
[1], co-solvent: methanol, co-solvent concentration (% v/v): 25 | 5.09
[1], co-solvent: methanol, co-solvent concentration (% v/v): 30 | 4.27
[1], co-solvent: n-propanol, co-solvent concentration (% v/v): 0 | 5.25
[1], co-solvent: n-propanol, co-solvent concentration (% v/v): 5 | 5.2
[1], co-solvent: n-propanol, co-solvent concentration (% v/v): 10 | 4.82
[1], co-solvent: n-propanol, co-solvent concentration (% v/v): 15 | 4.55
[1], co-solvent: n-propanol, co-solvent concentration (% v/v): 20 | 4.07
[1], co-solvent: n-propanol, co-solvent concentration (% v/v): 25 | 3.69
[1], co-solvent: n-propanol, co-solvent concentration (% v/v): 30 | 2.94
[2], co-solvent: ethanol, co-solvent concentration (% v/v): 0, reaction temperature 25 °C | 0.8
[2], co-solvent: ethanol, co-solvent concentration (% v/v): 0, reaction temperature 30 °C | 0.56
[2], co-solvent: ethanol, co-solvent concentration (% v/v): 0, reaction temperature 35 °C | 0.24
[2], co-solvent: ethanol, co-solvent concentration (% v/v): 0, reaction temperature 40 °C | 0.15
[2], co-solvent: ethanol, co-solvent concentration (% v/v): 5, reaction temperature 25 °C | 0.77
[2], co-solvent: ethanol, co-solvent concentration (% v/v): 5, reaction temperature 30 °C | 0.66
[2], co-solvent: ethanol, co-solvent concentration (% v/v): 5, reaction temperature 35 °C | 0.27
[2], co-solvent: ethanol, co-solvent concentration (% v/v): 5, reaction temperature 40 °C | 0.05
[2], co-solvent: ethanol, co-solvent concentration (% v/v): 10, reaction temperature 25 °C | 0.95
[2], co-solvent: ethanol, co-solvent concentration (% v/v): 10, reaction temperature 30 °C | 0.67
[2], co-solvent: ethanol, co-solvent concentration (% v/v): 10, reaction temperature 35 °C | 0.28
[2], co-solvent: ethanol, co-solvent concentration (% v/v): 10, reaction temperature 40 °C | 0.04
[2], co-solvent: ethanol, co-solvent concentration (% v/v): 15, reaction temperature 25 °C | 0.96
[2], co-solvent: ethanol, co-solvent concentration (% v/v): 15, reaction temperature 30 °C | 0.85
[2], co-solvent: ethanol, co-solvent concentration (% v/v): 15, reaction temperature 35 °C | 0.21
[2], co-solvent: ethanol, co-solvent concentration (% v/v): 15, reaction temperature 40 °C | 0.03
[2], co-solvent: ethanol, co-solvent concentration (% v/v): 20, reaction temperature 25 °C | 0.99
[2], co-solvent: ethanol, co-solvent concentration (% v/v): 20, reaction temperature 30 °C | 0.75
[2], co-solvent: ethanol, co-solvent concentration (% v/v): 20, reaction temperature 35 °C | 0.17
[2], co-solvent: ethanol, co-solvent concentration (% v/v): 20, reaction temperature 40 °C | 0.03
[2], co-solvent: ethanol, co-solvent concentration (% v/v): 25, reaction temperature 25 °C | 0.88
[2], co-solvent: ethanol, co-solvent concentration (% v/v): 25, reaction temperature 30 °C | 0.63
[2], co-solvent: ethanol, co-solvent concentration (% v/v): 25, reaction temperature 35 °C | 0.08
[2], co-solvent: ethanol, co-solvent concentration (% v/v): 25, reaction temperature 40 °C | 0.03
[2], co-solvent: ethanol, co-solvent concentration (% v/v): 30, reaction temperature 25 °C | 0.63
[2], co-solvent: ethanol, co-solvent concentration (% v/v): 30, reaction temperature 30 °C | 0.44
[2], co-solvent: ethanol, co-solvent concentration (% v/v): 30, reaction temperature 35 °C | 0.04
[2], co-solvent: ethanol, co-solvent concentration (% v/v): 30, reaction temperature 40 °C | 0.04
[2], co-solvent: ethanol, co-solvent concentration (% v/v): 35, reaction temperature 25 °C | 0.45
[2], co-solvent: ethanol, co-solvent concentration (% v/v): 35, reaction temperature 30 °C | 0.25
[2], co-solvent: ethanol, co-solvent concentration (% v/v): 35, reaction temperature 35 °C | 0.02
[2], co-solvent: ethanol, co-solvent concentration (% v/v): 35, reaction temperature 40 °C | 0.04
[2], co-solvent: ethanol, co-solvent concentration (% v/v): 40, reaction temperature 25 °C | 0.23
[2], co-solvent: ethanol, co-solvent concentration (% v/v): 40, reaction temperature 30 °C | 0.1
[2], co-solvent: ethanol, co-solvent concentration (% v/v): 40, reaction temperature 35 °C | 0.04
[2], co-solvent: ethanol, co-solvent concentration (% v/v): 40, reaction temperature 40 °C | 0.02
[2], co-solvent: ethanol, co-solvent concentration (% v/v): 45, reaction temperature 25 °C | 0.11
[2], co-solvent: ethanol, co-solvent concentration (% v/v): 45, reaction temperature 30 °C | 0.06
[2], co-solvent: ethanol, co-solvent concentration (% v/v): 45, reaction temperature 35 °C | 0
[2], co-solvent: ethanol, co-solvent concentration (% v/v): 45, reaction temperature 40 °C | 0.04
[2], co-solvent: methanol, co-solvent concentration (% v/v): 0, reaction temperature 25 °C | 0.66
[2], co-solvent: methanol, co-solvent concentration (% v/v): 0, reaction temperature 30 °C | 0.51
[2], co-solvent: methanol, co-solvent concentration (% v/v): 0, reaction temperature 35 °C | 0.25
[2], co-solvent: methanol, co-solvent concentration (% v/v): 0, reaction temperature 40 °C | 0.12
[2], co-solvent: methanol, co-solvent concentration (% v/v): 5, reaction temperature 25 °C | 0.61
[2], co-solvent: methanol, co-solvent concentration (% v/v): 5, reaction temperature 30 °C | 0.42
[2], co-solvent: methanol, co-solvent concentration (% v/v): 5, reaction temperature 35 °C | 0.2
[2], co-solvent: methanol, co-solvent concentration (% v/v): 5, reaction temperature 40 °C | 0.09
[2], co-solvent: methanol, co-solvent concentration (% v/v): 10, reaction temperature 25 °C | 0.69
[2], co-solvent: methanol, co-solvent concentration (% v/v): 10, reaction temperature 30 °C | 0.41
[2], co-solvent: methanol, co-solvent concentration (% v/v): 10, reaction temperature 35 °C | 0.14
[2], co-solvent: methanol, co-solvent concentration (% v/v): 10, reaction temperature 40 °C | 0.04
[2], co-solvent: methanol, co-solvent concentration (% v/v): 15, reaction temperature 25 °C | 0.65
[2], co-solvent: methanol, co-solvent concentration (% v/v): 15, reaction temperature 30 °C | 0.43
[2], co-solvent: methanol, co-solvent concentration (% v/v): 15, reaction temperature 35 °C | 0.1
[2], co-solvent: methanol, co-solvent concentration (% v/v): 15, reaction temperature 40 °C | 0.02
[2], co-solvent: methanol, co-solvent concentration (% v/v): 20, reaction temperature 25 °C | 0.66
[2], co-solvent: methanol, co-solvent concentration (% v/v): 20, reaction temperature 30 °C | 0.4
[2], co-solvent: methanol, co-solvent concentration (% v/v): 20, reaction temperature 35 °C | 0.1
[2], co-solvent: methanol, co-solvent concentration (% v/v): 20, reaction temperature 40 °C | 0.03
[2], co-solvent: methanol, co-solvent concentration (% v/v): 25, reaction temperature 25 °C | 0.6
[2], co-solvent: methanol, co-solvent concentration (% v/v): 25, reaction temperature 30 °C | 0.4
[2], co-solvent: methanol, co-solvent concentration (% v/v): 25, reaction temperature 35 °C | 0.05
[2], co-solvent: methanol, co-solvent concentration (% v/v): 25, reaction temperature 40 °C | 0.02
[2], co-solvent: methanol, co-solvent concentration (% v/v): 30, reaction temperature 25 °C | 0.55
[2], co-solvent: methanol, co-solvent concentration (% v/v): 30, reaction temperature 30 °C | 0.28
[2], co-solvent: methanol, co-solvent concentration (% v/v): 30, reaction temperature 35 °C | 0.04
[2], co-solvent: methanol, co-solvent concentration (% v/v): 30, reaction temperature 40 °C | 0.03
[2], co-solvent: methanol, co-solvent concentration (% v/v): 35, reaction temperature 25 °C | 0.44
[2], co-solvent: methanol, co-solvent concentration (% v/v): 35, reaction temperature 30 °C | 0.21
[2], co-solvent: methanol, co-solvent concentration (% v/v): 35, reaction temperature 35 °C | 0.02
[2], co-solvent: methanol, co-solvent concentration (% v/v): 35, reaction temperature 40 °C | 0.02
[2], co-solvent: methanol, co-solvent concentration (% v/v): 40, reaction temperature 25 °C | 0.2
[2], co-solvent: methanol, co-solvent concentration (% v/v): 40, reaction temperature 30 °C | 0.11
[2], co-solvent: methanol, co-solvent concentration (% v/v): 40, reaction temperature 35 °C | 0.07
[2], co-solvent: methanol, co-solvent concentration (% v/v): 40, reaction temperature 40 °C | 0.03
[2], co-solvent: methanol, co-solvent concentration (% v/v): 45, reaction temperature 25 °C | 0.04
[2], co-solvent: methanol, co-solvent concentration (% v/v): 45, reaction temperature 30 °C | 0.04
[2], co-solvent: methanol, co-solvent concentration (% v/v): 45, reaction temperature 35 °C | 0.04
[2], co-solvent: methanol, co-solvent concentration (% v/v): 45, reaction temperature 40 °C | 0.05
